T1: FcγRIIb extracellular domain with C-terminal His tag (human, UniProt P31994 43-217)
T1 construct: extracellular domain; expressed in FreeStyle293 cells; analyte in the Biacore assay; also called FcgRIIb; 2b; not shown: His tag at the C terminus
T1 sequence (looked up): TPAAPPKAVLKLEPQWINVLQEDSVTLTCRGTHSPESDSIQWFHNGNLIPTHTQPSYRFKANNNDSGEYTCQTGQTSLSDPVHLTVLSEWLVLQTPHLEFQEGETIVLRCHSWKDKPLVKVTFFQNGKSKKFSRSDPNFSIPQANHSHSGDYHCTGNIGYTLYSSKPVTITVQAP

B1: GpH7-B3 variant K334_01G/GpL16-k0 (antibody, human IgG1, kappa)
heavy: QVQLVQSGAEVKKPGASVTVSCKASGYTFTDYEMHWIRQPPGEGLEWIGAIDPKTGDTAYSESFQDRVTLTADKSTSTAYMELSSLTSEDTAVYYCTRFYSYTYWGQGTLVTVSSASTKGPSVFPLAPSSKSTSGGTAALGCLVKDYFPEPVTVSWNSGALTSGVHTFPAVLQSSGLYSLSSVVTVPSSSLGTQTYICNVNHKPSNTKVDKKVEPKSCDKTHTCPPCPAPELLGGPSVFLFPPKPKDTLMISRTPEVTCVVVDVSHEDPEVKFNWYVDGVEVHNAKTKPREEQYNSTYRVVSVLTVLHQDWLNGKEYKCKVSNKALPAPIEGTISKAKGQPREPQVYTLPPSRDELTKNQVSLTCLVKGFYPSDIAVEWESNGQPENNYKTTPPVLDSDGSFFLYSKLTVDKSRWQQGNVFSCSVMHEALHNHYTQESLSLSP
light: DIVMTQSPLSLPVTPGEPASISCQASESLVHSNRNTYLHWYLQKPGQSPQLLIYKVSNRFSGVPDRFSGSGSGTDFTLKISRVEAEDVGVYYCSQNTHVPPTFGQGTKVEIERTVAAPSVFIFPPSDEQLKSGTASVVCLLNNFYPREAKVQWKVDNALQSGNSQESVTEQDSKDSTYSLSSTLTLSKADYEKHKVYACEVTHQGLSSPVTKSFNRGEC
notes: homodimerized IgG1, mutation in both H chains; also called Ho Ab
B2: GpH7-B3 variant I332_15Y/GpL16-k0 (antibody, human IgG1, kappa)
heavy: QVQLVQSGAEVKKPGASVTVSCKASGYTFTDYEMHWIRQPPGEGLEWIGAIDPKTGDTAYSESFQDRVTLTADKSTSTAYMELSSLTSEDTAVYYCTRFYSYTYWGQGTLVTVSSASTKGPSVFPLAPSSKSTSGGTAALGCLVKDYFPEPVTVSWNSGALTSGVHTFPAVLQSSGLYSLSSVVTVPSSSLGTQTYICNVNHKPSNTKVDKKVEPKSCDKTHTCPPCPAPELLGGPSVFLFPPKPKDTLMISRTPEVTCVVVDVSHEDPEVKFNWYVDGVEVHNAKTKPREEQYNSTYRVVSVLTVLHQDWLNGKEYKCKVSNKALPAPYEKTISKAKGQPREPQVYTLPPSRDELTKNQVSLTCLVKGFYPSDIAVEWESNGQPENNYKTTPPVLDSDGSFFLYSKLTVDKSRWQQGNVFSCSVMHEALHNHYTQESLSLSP
light: B1 light
notes: as for B1
B3: GpH7-B3 variant A330_04F/GpL16-k0 (antibody, human IgG1, kappa)
heavy: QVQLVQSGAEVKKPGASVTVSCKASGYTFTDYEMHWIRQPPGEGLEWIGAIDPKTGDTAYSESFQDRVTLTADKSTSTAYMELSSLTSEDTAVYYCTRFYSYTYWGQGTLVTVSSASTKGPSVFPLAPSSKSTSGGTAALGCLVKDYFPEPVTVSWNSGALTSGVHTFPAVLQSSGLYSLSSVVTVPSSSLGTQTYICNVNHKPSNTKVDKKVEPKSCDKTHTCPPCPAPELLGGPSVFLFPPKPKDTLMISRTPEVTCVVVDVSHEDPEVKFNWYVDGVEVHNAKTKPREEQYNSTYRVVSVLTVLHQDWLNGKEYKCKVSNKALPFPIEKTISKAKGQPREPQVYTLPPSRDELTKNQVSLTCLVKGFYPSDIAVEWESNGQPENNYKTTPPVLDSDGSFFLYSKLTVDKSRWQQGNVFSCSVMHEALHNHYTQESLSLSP
light: B1 light
notes: as for B1
B4: GpH7-B3 variant E333_16H/GpL16-k0 (antibody, human IgG1, kappa)
heavy: not shown
light: B1 light
notes: as for B1
B5: GpH7-B3 variant I332_02A/GpL16-k0 (antibody, human IgG1, kappa)
heavy: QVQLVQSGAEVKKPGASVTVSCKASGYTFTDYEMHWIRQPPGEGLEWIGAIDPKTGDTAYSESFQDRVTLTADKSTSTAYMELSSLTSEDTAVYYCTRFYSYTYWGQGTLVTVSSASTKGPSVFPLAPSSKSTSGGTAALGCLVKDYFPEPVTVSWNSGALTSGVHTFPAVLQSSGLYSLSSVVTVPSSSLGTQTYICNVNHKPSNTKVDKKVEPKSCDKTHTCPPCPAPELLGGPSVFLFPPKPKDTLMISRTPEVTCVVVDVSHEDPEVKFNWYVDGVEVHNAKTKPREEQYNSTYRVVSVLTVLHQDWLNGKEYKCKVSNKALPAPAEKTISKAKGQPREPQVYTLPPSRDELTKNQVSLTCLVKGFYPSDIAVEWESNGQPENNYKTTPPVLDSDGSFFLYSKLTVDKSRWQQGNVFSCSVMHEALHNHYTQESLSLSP
light: B1 light
notes: as for B1
B6: GpH7-B3 variant I332_09D/GpL16-k0 (antibody, human IgG1, kappa)
heavy: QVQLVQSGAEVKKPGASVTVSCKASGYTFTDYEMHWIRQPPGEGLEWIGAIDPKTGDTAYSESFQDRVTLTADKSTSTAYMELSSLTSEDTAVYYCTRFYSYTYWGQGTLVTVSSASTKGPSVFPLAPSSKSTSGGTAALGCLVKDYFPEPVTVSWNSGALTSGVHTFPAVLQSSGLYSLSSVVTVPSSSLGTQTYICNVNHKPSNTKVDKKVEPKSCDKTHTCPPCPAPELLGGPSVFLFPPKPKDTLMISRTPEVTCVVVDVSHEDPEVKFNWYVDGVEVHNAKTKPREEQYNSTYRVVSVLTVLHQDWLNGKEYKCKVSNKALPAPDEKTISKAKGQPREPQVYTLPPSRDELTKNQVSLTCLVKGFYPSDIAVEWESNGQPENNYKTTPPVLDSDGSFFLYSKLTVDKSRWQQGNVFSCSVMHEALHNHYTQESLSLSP
light: B1 light
notes: as for B1
B7: GpH7-B3 variant I332_10E/GpL16-k0 (antibody, human IgG1, kappa)
heavy: not shown
light: B1 light
notes: as for B1
B8: GpH7-B3 variant I332_01G/GpL16-k0 (antibody, human IgG1, kappa)
heavy: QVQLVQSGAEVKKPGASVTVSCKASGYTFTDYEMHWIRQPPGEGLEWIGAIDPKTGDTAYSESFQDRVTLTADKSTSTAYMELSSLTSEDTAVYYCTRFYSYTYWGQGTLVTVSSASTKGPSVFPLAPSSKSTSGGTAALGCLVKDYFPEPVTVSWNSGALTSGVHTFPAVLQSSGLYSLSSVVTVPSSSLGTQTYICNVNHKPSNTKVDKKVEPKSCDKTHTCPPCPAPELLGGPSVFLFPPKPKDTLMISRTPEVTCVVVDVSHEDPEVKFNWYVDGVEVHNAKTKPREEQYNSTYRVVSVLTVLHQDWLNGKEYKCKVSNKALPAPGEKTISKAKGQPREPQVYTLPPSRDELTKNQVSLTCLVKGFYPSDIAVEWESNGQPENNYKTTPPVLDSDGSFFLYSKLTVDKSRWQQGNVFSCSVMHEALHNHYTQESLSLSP
light: B1 light
notes: as for B1
B9: GpH7-B3 variant H268_10E/GpL16-k0 (antibody, human IgG1, kappa)
heavy: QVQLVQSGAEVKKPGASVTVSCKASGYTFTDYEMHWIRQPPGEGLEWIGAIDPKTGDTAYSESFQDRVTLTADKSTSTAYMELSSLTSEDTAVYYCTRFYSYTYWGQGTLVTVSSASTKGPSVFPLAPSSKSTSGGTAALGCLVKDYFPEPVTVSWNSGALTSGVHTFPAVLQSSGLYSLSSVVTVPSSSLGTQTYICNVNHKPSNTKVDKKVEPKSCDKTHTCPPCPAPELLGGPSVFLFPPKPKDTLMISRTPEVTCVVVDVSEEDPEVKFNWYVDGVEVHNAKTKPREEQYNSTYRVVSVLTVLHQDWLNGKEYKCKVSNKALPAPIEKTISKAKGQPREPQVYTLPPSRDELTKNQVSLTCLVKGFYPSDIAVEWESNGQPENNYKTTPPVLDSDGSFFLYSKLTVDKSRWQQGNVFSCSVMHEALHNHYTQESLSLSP
light: B1 light
notes: as for B1
B10: GpH7-B3 variant I332_13S/GpL16-k0 (antibody, human IgG1, kappa)
heavy: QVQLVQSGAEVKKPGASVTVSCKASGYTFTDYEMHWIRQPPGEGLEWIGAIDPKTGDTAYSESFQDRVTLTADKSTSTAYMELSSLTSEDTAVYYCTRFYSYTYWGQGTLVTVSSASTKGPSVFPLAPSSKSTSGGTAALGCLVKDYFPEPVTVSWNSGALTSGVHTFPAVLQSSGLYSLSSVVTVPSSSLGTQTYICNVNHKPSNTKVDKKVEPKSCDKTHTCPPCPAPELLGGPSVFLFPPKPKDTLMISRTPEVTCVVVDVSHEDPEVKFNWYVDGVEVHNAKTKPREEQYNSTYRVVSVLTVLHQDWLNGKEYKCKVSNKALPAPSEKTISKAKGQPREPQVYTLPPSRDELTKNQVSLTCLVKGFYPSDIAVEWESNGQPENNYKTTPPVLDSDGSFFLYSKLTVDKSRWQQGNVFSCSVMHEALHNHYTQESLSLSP
light: B1 light
notes: as for B1
B11: GpH7-B3 variant A330_08L/GpL16-k0 (antibody, human IgG1, kappa)
heavy: not shown
light: B1 light
notes: as for B1
B12: GpH7-B3 variant H268_13S/GpL16-k0 (antibody, human IgG1, kappa)
heavy: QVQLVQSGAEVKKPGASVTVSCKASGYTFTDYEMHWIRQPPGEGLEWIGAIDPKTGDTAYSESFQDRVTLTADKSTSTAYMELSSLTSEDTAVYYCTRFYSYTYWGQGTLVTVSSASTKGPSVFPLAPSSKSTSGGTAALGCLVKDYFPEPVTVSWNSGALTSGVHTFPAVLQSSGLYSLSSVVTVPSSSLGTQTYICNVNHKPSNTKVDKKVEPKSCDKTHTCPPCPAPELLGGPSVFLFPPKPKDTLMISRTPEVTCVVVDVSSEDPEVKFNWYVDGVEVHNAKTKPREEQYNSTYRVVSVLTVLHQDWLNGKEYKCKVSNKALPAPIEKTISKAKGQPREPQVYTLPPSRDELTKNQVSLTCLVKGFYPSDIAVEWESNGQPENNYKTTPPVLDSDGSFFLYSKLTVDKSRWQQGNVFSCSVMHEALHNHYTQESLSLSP
light: B1 light
notes: as for B1
B13: GpH7-B3 variant I332_14T/GpL16-k0 (antibody, human IgG1, kappa)
heavy: not shown
light: B1 light
notes: as for B1
B14: GpH7-B3 variant A330_20W/GpL16-k0 (antibody, human IgG1, kappa)
heavy: not shown
light: B1 light
notes: as for B1
B15: GpH7-B3 variant H268_09D/GpL16-k0 (antibody, human IgG1, kappa)
heavy: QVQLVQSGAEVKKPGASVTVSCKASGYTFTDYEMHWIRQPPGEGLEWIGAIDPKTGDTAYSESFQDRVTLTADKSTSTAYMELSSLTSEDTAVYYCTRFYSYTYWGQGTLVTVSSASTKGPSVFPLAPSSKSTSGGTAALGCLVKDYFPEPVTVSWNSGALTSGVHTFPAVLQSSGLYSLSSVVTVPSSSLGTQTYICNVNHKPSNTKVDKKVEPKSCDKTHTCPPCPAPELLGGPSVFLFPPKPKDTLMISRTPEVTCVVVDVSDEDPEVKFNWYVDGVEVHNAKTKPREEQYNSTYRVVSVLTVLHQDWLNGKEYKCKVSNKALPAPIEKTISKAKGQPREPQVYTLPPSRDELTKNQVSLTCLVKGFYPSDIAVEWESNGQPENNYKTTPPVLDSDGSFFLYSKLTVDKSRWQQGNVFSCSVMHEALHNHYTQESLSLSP
light: B1 light
notes: as for B1
B16: GpH7-A5/GpH7-B3 variant K326_06M/GpL16-k0 (antibody, human IgG1, kappa)
heavy 1: not shown
heavy 2: not shown
light: B1 light
notes: heterodimerized; mutation in the B3 H chain only; also called He Ab K326_06M
B17: GpH7-A5/GpH7-B3 variant K334_02A/GpL16-k0 (antibody, human IgG1, kappa)
heavy 1: not shown
heavy 2: not shown
light: B1 light
notes: heterodimerized; mutation in the B3 H chain only; also called He Ab K334_02A
B18: GpH7-A5/GpH7-B3 variant K326_09D/GpL16-k0 (antibody, human IgG1, kappa)
heavy 1: not shown
heavy 2: not shown
light: B1 light
notes: heterodimerized; mutation in the B3 H chain only; also called He Ab K326_09D
B19: GpH7-A5/GpH7-B3 variant K326_16H/GpL16-k0 (antibody, human IgG1, kappa)
heavy 1: not shown
heavy 2: not shown
light: B1 light
notes: heterodimerized; mutation in the B3 H chain only; also called He Ab K326_16H
B20: GpH7-A5/GpH7-B3 variant S239_03V/GpL16-k0 (antibody, human IgG1, kappa)
heavy 1: not shown
heavy 2: not shown
light: B1 light
notes: heterodimerized; mutation in the B3 H chain only; also called He Ab S239_03V
B21: GpH7-A5/GpH7-B3 variant S267_06M/GpL16-k0 (antibody, human IgG1, kappa)
heavy 1: not shown
heavy 2: not shown
light: B1 light
notes: heterodimerized; mutation in the B3 H chain only; also called He Ab S267_06M
B22: GpH7-A5/GpH7-B3 variant S324_06M/GpL16-k0 (antibody, human IgG1, kappa)
heavy 1: not shown
heavy 2: not shown
light: B1 light
notes: heterodimerized; mutation in the B3 H chain only; also called He Ab S324_06M
B23: GpH7-A5/GpH7-B3 variant P331_20W/GpL16-k0 (antibody, human IgG1, kappa)
heavy 1: not shown
heavy 2: not shown
light: B1 light
notes: heterodimerized; mutation in the B3 H chain only; also called He Ab P331_20W
B24: GpH7-A5/GpH7-B3 variant P238_15Y/GpL16-k0 (antibody, human IgG1, kappa)
heavy 1: not shown
heavy 2: not shown
light: B1 light
notes: heterodimerized; mutation in the B3 H chain only; also called He Ab P238_15Y
B25: GpH7-A5/GpH7-B3 variant K326_14T/GpL16-k0 (antibody, human IgG1, kappa)
heavy 1: not shown
heavy 2: not shown
light: B1 light
notes: heterodimerized; mutation in the B3 H chain only; also called He Ab K326_14T
B26: GpH7-A5/GpH7-B3 variant L235_20W/GpL16-k0 (antibody, human IgG1, kappa)
heavy 1: not shown
heavy 2: not shown
light: B1 light
notes: heterodimerized; mutation in the B3 H chain only; also called He Ab L235_20W

For one assay, the target named is T2, FcγRIIIa extracellular domain with C-terminal His tag (human, UniProt P08637 17-208).
T2 construct: extracellular domain; also called FcgRIIIa; 3a
T2 sequence (P08637 17-208): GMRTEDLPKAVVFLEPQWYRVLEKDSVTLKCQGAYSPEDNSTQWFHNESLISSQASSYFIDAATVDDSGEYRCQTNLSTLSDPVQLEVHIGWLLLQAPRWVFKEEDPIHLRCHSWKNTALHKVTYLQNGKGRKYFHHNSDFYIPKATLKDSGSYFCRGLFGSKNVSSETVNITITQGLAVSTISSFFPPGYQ
Description: SPR, relative to GpH7-B3/GpL16-k0.
For the molecule B1, the Ho/Con_3a is 104 % of control (=100). For B2, the Ho/Con_3a is 106 % of control (=100). Still for that read-out and setting: with B3 the figure was 174 % of control (=100). On the same count and under the same terms, with B4 the figure was 111 % of control (=100). The same measure, in the same setting: under B5 stands 114 % of control (=100).

In the case of B6, the Ho/Con_3a was 255 % of control (=100).

Consider B7, for which the Ho/Con_3a is 278 % of control (=100). Same read-out and setting: under B8 stands 104 % of control (=100); under B9, 2060 % of control (=100).

Regarding B10, the Ho/Con_3a was 112 % of control (=100). On the same count and under the same terms, with B11 the figure was 138 % of control (=100); with B12, 130 % of control (=100); with B13, 138 % of control (=100). As for B14, the Ho/Con_3a was 118 % of control (=100). The same measure, in the same setting: under B15 stands 220 % of control (=100).

For another assay, the target named is T1, FcγRIIb extracellular domain with …. Put plainly: SPR (Biacore), captured antibody, FcγRIIb analyte; binding relative to GpH7-A5/GpH7-B3/GpL16-k0 = 100. A general note: SPR reads the build-up and loss of mass on a sensor chip optically.
Consider B16, for which the He/Con_2b is 165 % of control. Take B17: the He/Con_2b was 108 % of control. The same measure, in the same setting: with B18 the figure was 193 % of control; with B19, 119 % of control; with B20, 108 % of control. On to B21, for which the He/Con_2b was 210 % of control. In the case of B22, the He/Con_2b was 112 % of control. The same measure, in the same setting: with B23 the figure was 111 % of control; with B24, 218 % of control; with B25, 150 % of control. The same measure, in the same setting: with B26 the figure was 147 % of control.

Values taken from patent publication US20180155451A1 (published 2018).
